# According to PMC7173237:
# Target: West Nile virus (Kunjin subtype, strain MRM61C) core (C) protein, trypsin-cleaved fragment Val23-Arg98 (Kunjin virus (strain MRM61C))
# Assay: crystal structure
substance,measurement,value
"West Nile virus (Kunjin subtype, strain MRM61C) core (C) protein, trypsin-cleaved fragment Val23-Arg98 (domain or fragment)",stoichiometry N,4
